Test results: patent publication US20190241669A1 (published 2019)
Where a chain is given by its changes, count along the chain named. In names and notes the source's numbering stands.

Experiments:
Human BCMA (human) [1] = molecular target: Human BCMA (human) (UniProt Q02223); test: SPR, IgG immobilised, huBCMA analyte, 37 C
cynomolgus monkey BCMA [2] = molecular target: T1, cynomolgus monkey BCMA (cynomolgus monkey, UniProt A0A2K5UD97 1-53); test: SPR, IgG on chip, cyBCMA analyte, 37C
T1 construct: Soluble analyte in SPR; construct not described; also called cyBCMA; Cyno BCMA
T1 sequence (A0A2K5UD97 entry or part of it): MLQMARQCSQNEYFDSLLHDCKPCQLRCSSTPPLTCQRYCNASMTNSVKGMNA

Human BCMA (human) [3] = molecular target: Human BCMA (human) (UniProt Q02223); test: SPR, IgG immobilised, huBCMA analyte, 25 C
[4] = molecular target: human BCMA (B-cell maturation antigen) (human) (UniProt Q02223); test: cell-based or functional assay
Chain of human BCMA (B-cell maturation antigen) (human) (Q02223 other isoform, or with tags, fused parts or gaps): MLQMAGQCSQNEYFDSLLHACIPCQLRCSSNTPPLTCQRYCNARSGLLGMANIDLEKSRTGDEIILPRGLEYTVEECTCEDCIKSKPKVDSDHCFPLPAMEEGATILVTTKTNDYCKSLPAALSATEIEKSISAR

Human BCMA (human) [5] = molecular target: Human BCMA (human) (UniProt Q02223); test: SPR, IgG on chip, huBCMA analyte
cynomolgus monkey BCMA [6] = molecular target: T1, cynomolgus monkey BCMA; test: SPR, IgG on chip, cyBCMA analyte
[7] = molecular target: BCMA (analyte of Table 4A); test: SPR (Bio-Rad ProteOn XPR36), IgG amine-coupled, BCMA as analyte, kinetic titration; BCMA species and temperature not stated in Table 4A
Chain of BCMA (analyte of Table 4A) (Q02223 whole entry): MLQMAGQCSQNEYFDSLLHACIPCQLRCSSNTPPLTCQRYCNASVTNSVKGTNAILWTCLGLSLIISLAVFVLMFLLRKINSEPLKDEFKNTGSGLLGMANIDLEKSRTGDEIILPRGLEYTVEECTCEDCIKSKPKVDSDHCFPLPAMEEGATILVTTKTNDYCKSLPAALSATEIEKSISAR

B1: L3.PY/L3.KY/H2.YQ (antibody, V domains shown)
VH: EVQLLESGGGLVQPGGSLRLSCAASGFTFGSYAMTWVRQAPGKGLEWVSAISYQGGNTFYADSVKGRFTISRDNSKNTLYLQMNSLRAEDTAVYYCARVSPIASGMDYWGQGTLVTVSS
VL: EIVLTQSPGTLSLSPGERATLSCRASQSVSSSYLAWYQQKPGQAPRLLIYGASSRATGIPDRFSGSGSGTDFTLTISRLEPEDFAVYYCKYYPYPPSFTFGQGTKVEIK
notes: IgG
Kd (Human BCMA (human) [1]): 0.77 nM
T½ (Human BCMA (human) [1]): 7.02 min
koff (Human BCMA (human) [1]): 0.00165 s⁻¹
kon (Human BCMA (human) [1]): 2.14e+06 M⁻¹ s⁻¹
Kd (cynomolgus monkey BCMA [2]): 2.04 nM
T½ (cynomolgus monkey BCMA [2]): 4.47 min
koff (cynomolgus monkey BCMA [2]): 0.00258 s⁻¹
kon (cynomolgus monkey BCMA [2]): 1.27e+06 M⁻¹ s⁻¹

B2: L1.GDF/L3.NY/H3.AP (antibody, V domains shown)
VH: B1 VH with Y53G, Q54S, S104A, G105P
VL: B1 VL with S30G, S31D, S32F, K90Q, Y91H, P93N
Kd (Human BCMA (human) [3]): 1 nM
T½ (Human BCMA (human) [3]): 8.21 min
koff (Human BCMA (human) [3]): 0.00141 s⁻¹
kon (Human BCMA (human) [3]): 1.41e+06 M⁻¹ s⁻¹

B3: L1.LGF/L3.KW/H3.AP (antibody, V domains shown)
VH: B1 VH with Y53G, Q54S, S104A, G105P
VL: B1 VL with V29L, S30G, S32F, Y91H, P93G, Y94W
Kd (Human BCMA (human) [3]): 2.44 nM
T½ (Human BCMA (human) [3]): 5.1 min
koff (Human BCMA (human) [3]): 0.00227 s⁻¹
kon (Human BCMA (human) [3]): 928000 M⁻¹ s⁻¹

B4: L1.LGF/L3.PY/H3.AP (antibody, V domains shown)
VH: B1 VH with Y53G, Q54S, S104A, G105P
VL: B1 VL with V29L, S30G, S32F, K90Q, Y91H
Kd (Human BCMA (human) [3]): 2.12 nM
T½ (Human BCMA (human) [3]): 11.9 min
koff (Human BCMA (human) [3]): 0.000969 s⁻¹
kon (Human BCMA (human) [3]): 457000 M⁻¹ s⁻¹

B5: L1.GDF/L3.KW/H3.AP (antibody, V domains shown)
VH: B1 VH with Y53G, Q54S, S104A, G105P
VL: B1 VL with S30G, S31D, S32F, Y91H, P93G, Y94W
Kd (Human BCMA (human) [3]): 3.93 nM
T½ (Human BCMA (human) [3]): 2.51 min
koff (Human BCMA (human) [3]): 0.00461 s⁻¹
kon (Human BCMA (human) [3]): 1.17e+06 M⁻¹ s⁻¹

B6: L1.LGF/L3.NY/H3.AP (antibody, V domains shown)
VH: B1 VH with Y53G, Q54S, S104A, G105P
VL: B1 VL with V29L, S30G, S32F, K90Q, Y91H, P93N
Kd (Human BCMA (human) [3]): 0.57 nM
T½ (Human BCMA (human) [3]): 21.7 min
koff (Human BCMA (human) [3]): 0.000533 s⁻¹
kon (Human BCMA (human) [3]): 936000 M⁻¹ s⁻¹

B7: L3.PY/L3.KY/H3.TAQ (antibody, V domains shown)
VH: B1 VH with Y53G, Q54S, A97T, S104A, G105Q
VL: B1 VL
notes: IgG
Kd (Human BCMA (human) [1]): 0.23 nM
T½ (Human BCMA (human) [1]): 17.8 min
koff (Human BCMA (human) [1]): 0.000649 s⁻¹
kon (Human BCMA (human) [1]): 2.79e+06 M⁻¹ s⁻¹
Kd (cynomolgus monkey BCMA [2]): 1.06 nM
T½ (cynomolgus monkey BCMA [2]): 6.03 min
koff (cynomolgus monkey BCMA [2]): 0.00192 s⁻¹
kon (cynomolgus monkey BCMA [2]): 1.81e+06 M⁻¹ s⁻¹

B8: L3.PY/L3.KY/H3.YA (antibody, V domains shown)
VH: B1 VH with Y53G, Q54S, A103Y, S104A
VL: B1 VL
notes: IgG
Kd (Human BCMA (human) [1]): 0.28 nM
T½ (Human BCMA (human) [1]): 12.7 min
koff (Human BCMA (human) [1]): 0.000912 s⁻¹
kon (Human BCMA (human) [1]): 3.3e+06 M⁻¹ s⁻¹
Kd (cynomolgus monkey BCMA [2]): 2.33 nM
T½ (cynomolgus monkey BCMA [2]): 2.7 min
koff (cynomolgus monkey BCMA [2]): 0.00428 s⁻¹
kon (cynomolgus monkey BCMA [2]): 1.84e+06 M⁻¹ s⁻¹

B9: PC1C12-V1 BCMA specific CAR (protein)
chain: EVQLLESGGGLVQPGGSLRLSCAASGFTFSSYPMSWVRQAPGKGLEWVSAIGGSGGWSYYADSVKGRFTISRDNSKNTLYLQMNSLRAEDTAVYYCARYWPMDSWGQGTLVTVSSGGGGSGGGGSGGGGSEIVLTQSPGTLSLSPGERATLSCWLSQSVSSTYLAWYQQKPGQAPRLLIYDASSRAPGIPDRFSGSGSGTDFTLTISRLEPEDFAVYYCQQYSEWPLTFGQGTKVEIKGLAVSTISSFFPPGYQIYIWAPLAGTCGVLLLSLVITLYCKRGRKKLLYIFKQPFMRPVQTTQEEDGCSCRFPEEEEGGCELRVKFSRSADAPAYQQGQNQLYNELNLGRREEYDVLDKRRGRDPEMGGKPRRKNPQEGLYNELQKDKMAEAYSEIGMKGERRRGKGHDGLYQGLSTATKDTYDALHMQALPPR
% CD107a+ (in CD8+) (degranulation, CAR-T cells with MM1S cells, Donor 3) [4]: 68.2%
MFI CD107a+ (degranulation, CAR-T cells with MM1S cells, Donor 3) [4]: 1960 MFI

B10: PC1-V1 BCMA specific CAR (protein)
chain: B9 chain with W57S, S58T, W154R, L155A, E224T, W225S
% CD107a+ (in CD8+) (degranulation, CAR-T cells with MM1S cells, Donor 3) [4]: 75.6%
MFI CD107a+ (degranulation, CAR-T cells with MM1S cells, Donor 3) [4]: 2180 MFI

B11: P5AC1-V1 BCMA specific CAR (protein)
chain: EVQLLESGGGLVQPGGSLRLSCAASGFTFSSYAMNWVRQAPGKGLEWVSAILSSGGSTYYADSVKGRFTISRDNSKNTLYLQMNSLRAEDTAVYYCARYWPMDIWGQGTLVTVSSGGGGSGGGGSGGGGSEIVLTQSPGTLSLSPGERATLSCRGGQSVSSSYLAWYQQKPGQAPRLLMYDASIRATGIPDRFSGSGSGTDFTLTISRLEPEDFAVYYCQQYQSWPLTFGQGTKVEIKGLAVSTISSFFPPGYQIYIWAPLAGTCGVLLLSLVITLYCKRGRKKLLYIFKQPFMRPVQTTQEEDGCSCRFPEEEEGGCELRVKFSRSADAPAYQQGQNQLYNELNLGRREEYDVLDKRRGRDPEMGGKPRRKNPQEGLYNELQKDKMAEAYSEIGMKGERRRGKGHDGLYQGLSTATKDTYDALHMQALPPR
% CD107a+ (in CD8+) (degranulation, CAR-T cells with MM1S cells, Donor 2) [4]: 68.6%
MFI CD107a+ (degranulation, CAR-T cells with MM1S cells, Donor 2) [4]: 2190 MFI

B12: A02_Rd4_6nM_C01 (antibody, V domains shown)
VH: EVQLLESGGGLVQPGGSLRLSCAASGFTFSSYAMNWVRQAPGKGLEWVSAITASGGSTYYADSVKGRFTISRDNSKNTLYLQMNSLRAEDTAVYYCARYWPMSLWGQGTLVTVSS
VL: EIVLTQSPGTLSLSPGERATLSCRASQSVSAYYLAWYQQKPGQAPRLLMYDASIRATGIPDRFSGSGSGTDFTLTISRLEPEDFAVYYCQQYERWPLTFGQGTKVEIK
notes: IgG
Kd (Human BCMA (human) [5]): 0.03 nM
koff (Human BCMA (human) [5]): 9.2e-05 s⁻¹
kon (Human BCMA (human) [5]): 3.11e+06 M⁻¹ s⁻¹
Kd (cynomolgus monkey BCMA [6]): 0.401 nM
koff (cynomolgus monkey BCMA [6]): 0.000583 s⁻¹
kon (cynomolgus monkey BCMA [6]): 1.45e+06 M⁻¹ s⁻¹
Kd [7]: 0.024 nM
koff [7]: 2.8e-05 s⁻¹
kon [7]: 1.2e+06 M⁻¹ s⁻¹
t1/2 [7]: 411 min

B13: A02_Rd4_6nM_C16 (antibody, V domains shown)
VH: B12 VH with T52S, A53D, S54F, S103D, L104I
VL: B12 VL with A31D, Y32L, E93Q, R94T
notes: IgG; also called P5AC16; P5A16
Kd (Human BCMA (human) [5]): 0.09 nM
koff (Human BCMA (human) [5]): 0.000141 s⁻¹
kon (Human BCMA (human) [5]): 1.56e+06 M⁻¹ s⁻¹
Kd (cynomolgus monkey BCMA [6]): 0.118 nM
koff (cynomolgus monkey BCMA [6]): 0.000158 s⁻¹
kon (cynomolgus monkey BCMA [6]): 1.34e+06 M⁻¹ s⁻¹
Kd [7]: 0.059 nM
koff [7]: 6.2e-05 s⁻¹
kon [7]: 1.1e+06 M⁻¹ s⁻¹
t1/2 [7]: 187 min

B14: COM22-V1 BCMA specific CAR (protein)
chain: EVQLLESGGGLVQPGGSLRLSCAASGFTFSSYAMNWVRQAPGKGLEWVSAISDSGGSRWYADSVKGRFTISRDNSKNTLYLQMNSLRAEDTAVYYCTRYWPMDIWGQGTLVTVSSGGGGSGGGGSGGGGSEIVLTQSPGTLSLSPGERATLSCRASVRVSSTYLAWYQQKPGQAPRLLMYDASIRATGIPDRFSGSGSGTDFTLTISRLEPEDFAVYYCQQYMKWPLTFGQGTKVEIKGLAVSTISSFFPPGYQIYIWAPLAGTCGVLLLSLVITLYCKRGRKKLLYIFKQPFMRPVQTTQEEDGCSCRFPEEEEGGCELRVKFSRSADAPAYQQGQNQLYNELNLGRREEYDVLDKRRGRDPEMGGKPRRKNPQEGLYNELQKDKMAEAYSEIGMKGERRRGKGHDGLYQGLSTATKDTYDALHMQALPPR
% CD107a+ (in CD8+) (degranulation, CAR-T cells with MM1S cells, Donor 3) [4]: 76.1%
MFI CD107a+ (degranulation, CAR-T cells with MM1S cells, Donor 3) [4]: 2220 MFI

B15: P5A-V1 BCMA specific CAR (protein)
chain: B11 chain with L52S, S53D, G155A, G156S, Q223G
% CD107a+ (in CD8+) (degranulation, CAR-T cells with MM1S cells, Donor 2) [4]: 77.6%
MFI CD107a+ (degranulation, CAR-T cells with MM1S cells, Donor 2) [4]: 2670 MFI

B16: P5AC16-V1 BCMA specific CAR (protein)
chain: B11 chain with L52S, S53D, S54F, G155A, G156S, S161D, S162L, S224T
% CD107a+ (in CD8+) (degranulation, CAR-T cells with MM1S cells, Donor 2) [4]: 61.6%
MFI CD107a+ (degranulation, CAR-T cells with MM1S cells, Donor 2) [4]: 1860 MFI
